Assay results reported in the supplement of paper PMC7125110.
± gives the standard error. Variants at the floor of the assay were thinned out.

B1: glmS ribozyme (parent)
chain: AUAAAAGCGCCAGAACUACAGAAAUGUAGUUGACGAGGAGGAGGUUUAUCGAAUUUUCGGCGGAUGCCUCCAAA

How the values were obtained:
Conditions in all cases: with glucosamine-6-phosphate
glucosamine-6-phosphate [1] = variants of: B1; assay: self-cleavage kobs at 40 uM GlcN6P; higher = faster cleavage; RNA array
Procedure, shortened: (§1)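 Glucosamine-6-phosphate in HEPES/KCl/Mg(OAc)2 buffer, at 40 μM to 10 mM, was flowed over barcoded ribozyme variants transcribed in situ by E. coli RNA polymerase on sequenced MiSeq chips. Tracking was through a hybridised Cy3 probe at 37 °C. kobs, kcat and KM came from exponential decay fits and weighted Michaelis–Menten fits of normalised per-tile medians.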

glucosamine-6-phosphate [2] = variants of: B1; assay: self-cleavage kobs at 160 uM GlcN6P; higher = faster cleavage; RNA array
Procedure, shortened: as §1

glucosamine-6-phosphate [3] = variants of: B1; assay: self-cleavage kobs at 2500 uM GlcN6P; higher = faster cleavage; RNA array
Procedure, shortened: as §1

glucosamine-6-phosphate [4] = variants of: B1; assay: self-cleavage kobs at 10000 uM GlcN6P; higher = faster cleavage; RNA array
Procedure, shortened: as §1

glucosamine-6-phosphate [5] = variants of: B1; assay: self-cleavage kobs at 640 uM GlcN6P; higher = faster cleavage; RNA array
Procedure, shortened: as §1

Variant: G9A C34G
- self-cleavage kobs at 40 uM GlcN6P (glucosamine-6-phosphate [1]): < 1e-05 s⁻¹
- self-cleavage kobs at 160 uM GlcN6P (glucosamine-6-phosphate [2]): < 1e-05 s⁻¹
- self-cleavage kobs at 2500 uM GlcN6P (glucosamine-6-phosphate [3]): < 1e-05 s⁻¹
- self-cleavage kobs at 10000 uM GlcN6P (glucosamine-6-phosphate [4]): < 1e-05 s⁻¹

Variant: C34G A53U G63U A64G
- self-cleavage kobs at 40 uM GlcN6P (glucosamine-6-phosphate [1]): < 1e-05 s⁻¹
- self-cleavage kobs at 10000 uM GlcN6P (glucosamine-6-phosphate [4]): < 1e-05 s⁻¹

Variant: A36G G43A C58A G62C C68G
- self-cleavage kobs at 40 uM GlcN6P (glucosamine-6-phosphate [1]): < 1e-05 s⁻¹
- self-cleavage kobs at 10000 uM GlcN6P (glucosamine-6-phosphate [4]): < 1e-05 s⁻¹

Variant: C11G A36G G40C
- self-cleavage kobs at 40 uM GlcN6P (glucosamine-6-phosphate [1]): < 1e-05 s⁻¹
- self-cleavage kobs at 160 uM GlcN6P (glucosamine-6-phosphate [2]): < 1e-05 s⁻¹
- self-cleavage kobs at 640 uM GlcN6P (glucosamine-6-phosphate [5]): < 1e-05 s⁻¹
- self-cleavage kobs at 2500 uM GlcN6P (glucosamine-6-phosphate [3]): < 1e-05 s⁻¹
- self-cleavage kobs at 10000 uM GlcN6P (glucosamine-6-phosphate [4]): < 1e-05 s⁻¹

Variant: G9A U56G
- self-cleavage kobs at 40 uM GlcN6P (glucosamine-6-phosphate [1]): < 1e-05 s⁻¹
- self-cleavage kobs at 160 uM GlcN6P (glucosamine-6-phosphate [2]): < 1e-05 s⁻¹

Variant: G35C A64U
- self-cleavage kobs at 40 uM GlcN6P (glucosamine-6-phosphate [1]): < 1e-05 s⁻¹
- self-cleavage kobs at 160 uM GlcN6P (glucosamine-6-phosphate [2]): < 1e-05 s⁻¹
- self-cleavage kobs at 640 uM GlcN6P (glucosamine-6-phosphate [5]): < 1e-05 s⁻¹
- self-cleavage kobs at 2500 uM GlcN6P (glucosamine-6-phosphate [3]): < 1e-05 s⁻¹
- self-cleavage kobs at 10000 uM GlcN6P (glucosamine-6-phosphate [4]): < 1e-05 s⁻¹

Variant: A33G C34A
- self-cleavage kobs at 40 uM GlcN6P (glucosamine-6-phosphate [1]): < 1e-05 s⁻¹
- self-cleavage kobs at 10000 uM GlcN6P (glucosamine-6-phosphate [4]): < 1e-05 s⁻¹

Variant: C58U U65A
- self-cleavage kobs at 40 uM GlcN6P (glucosamine-6-phosphate [1]): < 1e-05 s⁻¹
- self-cleavage kobs at 160 uM GlcN6P (glucosamine-6-phosphate [2]): < 1e-05 s⁻¹

Variant: U56C G62U
- self-cleavage kobs at 40 uM GlcN6P (glucosamine-6-phosphate [1]): < 1e-05 s⁻¹
- self-cleavage kobs at 10000 uM GlcN6P (glucosamine-6-phosphate [4]): < 1e-05 s⁻¹

Variant: U30A U31A
- self-cleavage kobs at 40 uM GlcN6P (glucosamine-6-phosphate [1]): 0.000419 ± 7.6e-05 s⁻¹
- self-cleavage kobs at 160 uM GlcN6P (glucosamine-6-phosphate [2]): 0.00152 ± 0.00033 s⁻¹
- self-cleavage kobs at 640 uM GlcN6P (glucosamine-6-phosphate [5]): 0.00269 ± 0.00057 s⁻¹
- self-cleavage kobs at 2500 uM GlcN6P (glucosamine-6-phosphate [3]): 0.0075 ± 0.0013 s⁻¹
- self-cleavage kobs at 10000 uM GlcN6P (glucosamine-6-phosphate [4]): 0.0264 ± 0.0056 s⁻¹

Variant: U30C G40A A52G U55C C61G
- self-cleavage kobs at 40 uM GlcN6P (glucosamine-6-phosphate [1]): < 1e-05 s⁻¹
- self-cleavage kobs at 10000 uM GlcN6P (glucosamine-6-phosphate [4]): < 1e-05 s⁻¹

Variant: A12C A24U A52C C67A
- self-cleavage kobs at 40 uM GlcN6P (glucosamine-6-phosphate [1]): < 1e-05 s⁻¹

Variant: A42G G43U
- self-cleavage kobs at 40 uM GlcN6P (glucosamine-6-phosphate [1]): < 1e-05 s⁻¹
- self-cleavage kobs at 160 uM GlcN6P (glucosamine-6-phosphate [2]): < 1e-05 s⁻¹
- self-cleavage kobs at 640 uM GlcN6P (glucosamine-6-phosphate [5]): < 1e-05 s⁻¹
- self-cleavage kobs at 2500 uM GlcN6P (glucosamine-6-phosphate [3]): < 1e-05 s⁻¹

Variant: C8A G51U C61U
- self-cleavage kobs at 40 uM GlcN6P (glucosamine-6-phosphate [1]): < 1e-05 s⁻¹
- self-cleavage kobs at 160 uM GlcN6P (glucosamine-6-phosphate [2]): < 1e-05 s⁻¹
- self-cleavage kobs at 640 uM GlcN6P (glucosamine-6-phosphate [5]): < 1e-05 s⁻¹
- self-cleavage kobs at 2500 uM GlcN6P (glucosamine-6-phosphate [3]): < 1e-05 s⁻¹

Variant: G7A G51A C67A
- self-cleavage kobs at 40 uM GlcN6P (glucosamine-6-phosphate [1]): < 1e-05 s⁻¹
- self-cleavage kobs at 10000 uM GlcN6P (glucosamine-6-phosphate [4]): < 1e-05 s⁻¹

Variant: G13A C50G G66U U69A
- self-cleavage kobs at 40 uM GlcN6P (glucosamine-6-phosphate [1]): 8.64e-05 ± 2.3e-05 s⁻¹
- self-cleavage kobs at 640 uM GlcN6P (glucosamine-6-phosphate [5]): 0.000563 ± 0.00026 s⁻¹
- self-cleavage kobs at 10000 uM GlcN6P (glucosamine-6-phosphate [4]): 0.000117 ± 3e-05 s⁻¹

Variant: C16G A42U
- self-cleavage kobs at 40 uM GlcN6P (glucosamine-6-phosphate [1]): < 1e-05 s⁻¹
- self-cleavage kobs at 160 uM GlcN6P (glucosamine-6-phosphate [2]): < 1e-05 s⁻¹

Variant: G41C C50G
- self-cleavage kobs at 40 uM GlcN6P (glucosamine-6-phosphate [1]): < 1e-05 s⁻¹
- self-cleavage kobs at 160 uM GlcN6P (glucosamine-6-phosphate [2]): < 1e-05 s⁻¹
- self-cleavage kobs at 640 uM GlcN6P (glucosamine-6-phosphate [5]): < 1e-05 s⁻¹
- self-cleavage kobs at 2500 uM GlcN6P (glucosamine-6-phosphate [3]): < 1e-05 s⁻¹
- self-cleavage kobs at 10000 uM GlcN6P (glucosamine-6-phosphate [4]): < 1e-05 s⁻¹

Variant: G62A A64G
- self-cleavage kobs at 40 uM GlcN6P (glucosamine-6-phosphate [1]): < 1e-05 s⁻¹

Variant: G44U A53C C58U C71U
- self-cleavage kobs at 40 uM GlcN6P (glucosamine-6-phosphate [1]): < 1e-05 s⁻¹
- self-cleavage kobs at 160 uM GlcN6P (glucosamine-6-phosphate [2]): < 1e-05 s⁻¹
- self-cleavage kobs at 640 uM GlcN6P (glucosamine-6-phosphate [5]): < 1e-05 s⁻¹
- self-cleavage kobs at 2500 uM GlcN6P (glucosamine-6-phosphate [3]): < 1e-05 s⁻¹
- self-cleavage kobs at 10000 uM GlcN6P (glucosamine-6-phosphate [4]): < 1e-05 s⁻¹

Variant: G13A U46C G59A
- self-cleavage kobs at 40 uM GlcN6P (glucosamine-6-phosphate [1]): < 1e-05 s⁻¹

Variant: G13C A15C G51U
- self-cleavage kobs at 40 uM GlcN6P (glucosamine-6-phosphate [1]): < 1e-05 s⁻¹

Variant: G29U C34A
- self-cleavage kobs at 40 uM GlcN6P (glucosamine-6-phosphate [1]): < 1e-05 s⁻¹
- self-cleavage kobs at 160 uM GlcN6P (glucosamine-6-phosphate [2]): < 1e-05 s⁻¹
- self-cleavage kobs at 2500 uM GlcN6P (glucosamine-6-phosphate [3]): < 1e-05 s⁻¹
- self-cleavage kobs at 10000 uM GlcN6P (glucosamine-6-phosphate [4]): < 1e-05 s⁻¹
